The series deals with the molecule itself. The series is described as follows: size-exclusion chromatography of anti-FLAG affinity purified protein (self-association into a homodimer). For orientation: SEC sorts molecules by how far they enter the pores of the column.

Procedure: Batch purification was performed using an anti-FLAG M2 affinity resin (Sigma-Aldrich, St. Louis, Mo., Cat. No. A2220), following the manufacturer's instructions. ADA2 were eluted from the resin using FLAG™ peptide. Purity of the eluted protein was assessed using SDS-PAGE and size-exclusion chromatography (SEC).

B1: WT recombinant human ADA2-FLAG polypeptide (enzyme)
chain: IDETRAHLLLKEKMMRLGGRLVLNTKEELANERLMTLKIAEMKEAMRTLIFPPSMHFFQAKHLIERSQVFNILRMMPKGAALHLHDIGIVTMDWLVRNVTYRPHCHICFTPRGIMQFRFAHPTPRPSEKCSKWILLEDYRKRVQNVTEFDDSLLRNFTLVTQHPEVIYTNQNVVWSKFETIFFTISGLIHYAPVFRDYVFRSMQEFYEDNVLYMEIRARLLPVYELSGEHHDEEWSVKTYQEVAQKFVETHPEFIGIKIIYSDHRSKDVAVIAESIRMAMGLRIKFPTVVAGFDLVGHEDTGHSLHDYKEALMIPAKDGVKLPYFFHAGETDWQGTSIDRNILDALMLNTTRIGHGFALSKHPAVRTYSWKKDIPIEVCPISNQVLKLVSDLRNHPVATLMATGHPMVISSDDPAMFGAKGLSYDFYEVFMGIGGMKADLRTLKQLAMNSIKYSTLLESEKNTFMEIWKKRWDKFIADVATKDYKDDDDK
notes: The only entry describes two identical subunits associating into the homodimer seen by SEC; Expressed in CHO-S cells and purified on anti-FLAG M2 resin; also called rHuADA2; rHuADA2-FLAG
Regarding B1, the binding result is given as “binds”.
